The results in this text go back to patent publication US20190216790A1, “Methods for Treating Pruritis” (The Regents of the University of California, priority 2016, published 2019).

Entries after “also recorded” stand apart in the source; their conditions may differ.

For the test, the system named is mice. Description: CXCL1-induced itch, subcutaneous injection in mice. The test is classed as in vivo. The text has this: CXCL1 is the mouse homologue for human Interleukin-8, which is increased in several inflammatory skin disorders including psoriasis and atopic dermatitis. […] Importantly, CXCL1-induced itch is entirely dependent on neutrophils (FIG. 1B). […] In addition, loss of TRPA1 results in reduced CXCL1 expression in skin. Blocking/ablation of the high-affinity LTB4 receptor, BLT1, also results in reduction of CXCL1-induced itch (FIG. 1C). Both LTB4 and reactive oxygen species (ROS) are produced by neutrophils and have been proposed to directly activate neurons and induce itch. It is shown here that neutrophils also play a key role in chronic itch. In a mouse model of atopic dermatitis, depletion of neutrophils during induction of itch drastically reduces itch and inflammatory responses (FIG. 1D). It is shown here that CXCL1 is increased in multiple mouse models of chronic itch, and LTB4 is increased in skin of mice with atopic dermatitis. It is proposed that neutrophils activate sensory neurons through the ion channel TRPA1 in a CXCL1/BLT1/LTB4-dependent fashion (FIG. 1E).
FIG. 1A-1E. […] (D) Depletion of neutrophils in a mouse model of atopic dermatitis greatly reduces itch. (E) Model showing proposed interactions. Atopic dermatitis results in increased levels of IL8 (humans) or CXCL1 (mice) that recruits neutrophils. Neutrophils activate sensory neurons to promote itch in a TRPA1 and BLT1-dependent manner. For all data, one-way ANOVA was performed with a Tukey-Kramer post hoc statistical analysis. Tukey-Kramer values are reported and only p<0.05 were considered significant; **=p<0.005; ***=p<0.0005; n.s.=not significant.

B1: CXCL1: a neutrophil chemoattractant and natural ligand for CXCR2; the mouse homologue for human Interleukin-8 (protein, UniProt P12850 25-96, looked up)
Growth-regulated alpha protein: APIANELRCQCLQTMAGIHLKNIQSLKVLPSGPHCTQTEVIATLKNGREACLDPEAPLVQKIVQKMLKGVPK
For the molecule B1, the CXCL1-induced itch entry (depletion of neutrophils (FIG. 1B)) is “abolishes CXCL1-induced itch”. The itch result (injected subcutaneously in mice (FIG. 1A)) was “robustly induces itch; also recorded: induces robust itch”. Under “mice lacking TRPA1 (FIG. 1A)”, the “itch responses to CXCL1” value is “reduced itch responses”. Besides, the “itch responses to CXCL1 injection” value (mice lacking the LTB4 receptor (BLT1) (FIG. 1C)) is recorded as “reduced itch responses”.
